Experimental data taken from the MegaScale stability set (Tsuboyama et al. 2023).

B1: HEEH_KT_rd6_3632 (parent)
chain: DAEELIELVERALKEGREIILLGVRITSEEAGKWFIEWIRRFL

Variants of: B1
Assay: folding stability dG (cDNA display proteolysis); higher = more stable
Settings: PBS, room temperature

Compared with V24P, V24L is higher in “folding stability dG” value: 3.03 kcal/mol for the first, 3.43 kcal/mol for the second.

First: V24W
Second: V24R
The “folding stability dG” value of the first is higher: 3.76 kcal/mol for the first, 3 kcal/mol for the second.

First: V24D
Second: V24F
The “folding stability dG” value of the first is lower: 2.71 kcal/mol for the first, 3.9 kcal/mol for the second.

First: V24E
Second: V24Y
The “folding stability dG” value of the first is lower: 2.9 kcal/mol for the first, 3.55 kcal/mol for the second.

First: V24H
Second: V24A
The “folding stability dG” value of the first is higher: 3.42 kcal/mol for the first, 3.15 kcal/mol for the second.

Compared with V24I, V24G is lower in “folding stability dG” value: 3.98 kcal/mol for the first, 3.22 kcal/mol for the second.

Compared with V24M, V24S is lower in “folding stability dG” value: 3.43 kcal/mol for the first, 2.86 kcal/mol for the second.

Going from V24T to V24K, the “folding stability dG” value falls from 3.25 kcal/mol to 3.05 kcal/mol.

Going from V24N to V24Q, the “folding stability dG” value rises from 2.99 kcal/mol to 3.13 kcal/mol.

Going from W38K to W38Y, the “folding stability dG” value rises from 2.86 kcal/mol to 3.37 kcal/mol.

First: W38F
Second: W38C
The “folding stability dG” value of the first is lower: 3.65 kcal/mol for the first, 3.94 kcal/mol for the second.

Going from W38R to W38V, the “folding stability dG” value rises from 2.89 kcal/mol to 2.96 kcal/mol.

Going from W38E to W38S, the “folding stability dG” value rises from 2.62 kcal/mol to 2.71 kcal/mol.

First: W38N
Second: W38H
The “folding stability dG” value of the first is lower: 2.8 kcal/mol for the first, 2.82 kcal/mol for the second.

Going from W38T to W38L, the “folding stability dG” value rises from 2.79 kcal/mol to 3.42 kcal/mol.

Compared with W38G, W38I is higher in “folding stability dG” value: 2.34 kcal/mol for the first, 3.2 kcal/mol for the second.

First: W38D
Second: W38P
The “folding stability dG” value of the first is lower: 2 kcal/mol for the first, 2.26 kcal/mol for the second.

Compared with W38M, W38Q is lower in “folding stability dG” value: 3.32 kcal/mol for the first, 2.96 kcal/mol for the second.

Compared with W38A, K33R is higher in “folding stability dG” value: 2.95 kcal/mol for the first, 4.02 kcal/mol for the second.

Compared with K33M, K33Y is higher in “folding stability dG” value: 3.57 kcal/mol for the first, 3.61 kcal/mol for the second.

First: K33N
Second: K33H
The “folding stability dG” value of the first is higher: 3.52 kcal/mol for the first, 3.51 kcal/mol for the second.

Compared with K33D, K33E is higher in “folding stability dG” value: 3.38 kcal/mol for the first, 3.43 kcal/mol for the second.

Going from K33S to K33V, the “folding stability dG” value rises from 3.39 kcal/mol to 3.55 kcal/mol.

Going from K33A to K33Q, the “folding stability dG” value falls from 3.77 kcal/mol to 3.62 kcal/mol.

Compared with K33L, K33I is lower in “folding stability dG” value: 3.63 kcal/mol for the first, 3.56 kcal/mol for the second.

First: K33P
Second: K33T
The “folding stability dG” value of the first is lower: 3.2 kcal/mol for the first, 3.56 kcal/mol for the second.

First: K33G
Second: K33F
The “folding stability dG” value of the first is lower: 3.34 kcal/mol for the first, 3.48 kcal/mol for the second.

Compared with K33C, K33W is lower in “folding stability dG” value: 3.99 kcal/mol for the first, 3.7 kcal/mol for the second.

Compared with I39K, I39C is higher in “folding stability dG” value: 2.56 kcal/mol for the first, 3.49 kcal/mol for the second.

Going from I39S to I39Y, the “folding stability dG” value rises from 2.66 kcal/mol to 3.43 kcal/mol.

First: I39E
Second: I39H
The “folding stability dG” value of the first is lower: 2.69 kcal/mol for the first, 2.73 kcal/mol for the second.

Compared with I39V, I39F is lower in “folding stability dG” value: 3.62 kcal/mol for the first, 3.46 kcal/mol for the second.

Going from I39P to I39W, the “folding stability dG” value rises from 2.22 kcal/mol to 3.23 kcal/mol.

Going from I39M to I39N, the “folding stability dG” value falls from 3.58 kcal/mol to 2.64 kcal/mol.

First: I39A
Second: I39L
The “folding stability dG” value of the first is lower: 2.92 kcal/mol for the first, 4.03 kcal/mol for the second.

Going from I39Q to I39R, the “folding stability dG” value rises from 2.63 kcal/mol to 2.71 kcal/mol.

Going from I39G to I39D, the “folding stability dG” value falls from 2.66 kcal/mol to 2.51 kcal/mol.

Compared with I39T, E37A is higher in “folding stability dG” value: 2.46 kcal/mol for the first, 3.81 kcal/mol for the second.

E37N and E37R are the same in “folding stability dG” value: 3.62 kcal/mol for the first, 3.62 kcal/mol for the second.

Going from E37S to E37L, the “folding stability dG” value rises from 3.52 kcal/mol to 3.93 kcal/mol.

First: E37T
Second: E37P
The “folding stability dG” value of the first is higher: 3.47 kcal/mol for the first, 2.92 kcal/mol for the second.

Going from E37M to E37H, the “folding stability dG” value falls from 3.83 kcal/mol to 3.46 kcal/mol.

Going from E37Q to E37W, the “folding stability dG” value rises from 3.67 kcal/mol to 3.88 kcal/mol.

Compared with E37Y, E37D is lower in “folding stability dG” value: 3.92 kcal/mol for the first, 3.57 kcal/mol for the second.

Going from E37G to E37I, the “folding stability dG” value rises from 3.42 kcal/mol to 3.87 kcal/mol.

Going from E37K to E37F, the “folding stability dG” value rises from 3.66 kcal/mol to 3.7 kcal/mol.

First: E37V
Second: E29W
The “folding stability dG” value of the first is lower: 3.79 kcal/mol for the first, 4.1 kcal/mol for the second.

Going from E29H to E29T, the “folding stability dG” value rises from 3.67 kcal/mol to 3.83 kcal/mol.

First: E29A
Second: E29I
The “folding stability dG” value of the first is lower: 3.89 kcal/mol for the first, 3.94 kcal/mol for the second.

Going from E29S to E29Y, the “folding stability dG” value rises from 3.71 kcal/mol to 3.96 kcal/mol.

Compared with E29D, E29R is higher in “folding stability dG” value: 3.67 kcal/mol for the first, 3.71 kcal/mol for the second.

Going from E29K to E29M, the “folding stability dG” value rises from 3.82 kcal/mol to 3.92 kcal/mol.

Going from E29F to E29L, the “folding stability dG” value rises from 3.88 kcal/mol to 3.93 kcal/mol.

First: E29Q
Second: E29P
The “folding stability dG” value of the first is lower: 3.97 kcal/mol for the first, 4.06 kcal/mol for the second.

Compared with E29V, E29N is higher in “folding stability dG” value: 3.79 kcal/mol for the first, 3.81 kcal/mol for the second.

Going from E29G to L21Y, the “folding stability dG” value falls from 3.63 kcal/mol to 3.28 kcal/mol.

First: I26M
Second: I26V
The “folding stability dG” value of the first is higher: 3.32 kcal/mol for the first, 3.29 kcal/mol for the second.

Compared with I26R, I26W is higher in “folding stability dG” value: 3.38 kcal/mol for the first, 3.39 kcal/mol for the second.

Compared with I26Q, I26S is lower in “folding stability dG” value: 3.21 kcal/mol for the first, 3.07 kcal/mol for the second.

Going from I26Y to I26N, the “folding stability dG” value falls from 3.34 kcal/mol to 3.21 kcal/mol.

Compared with I26A, I26G is lower in “folding stability dG” value: 3.34 kcal/mol for the first, 2.89 kcal/mol for the second.

Compared with I26K, I26L is higher in “folding stability dG” value: 3.26 kcal/mol for the first, 3.37 kcal/mol for the second.

Going from I26P to I26H, the “folding stability dG” value falls from 3.18 kcal/mol to 3.09 kcal/mol.

Going from I26F to I26E, the “folding stability dG” value falls from 3.44 kcal/mol to 3.33 kcal/mol.

First: I26D
Second: I26C
The “folding stability dG” value of the first is lower: 2.97 kcal/mol for the first, 4.36 kcal/mol for the second.

Compared with I26T, R25T is higher in “folding stability dG” value: 3.49 kcal/mol for the first, 3.56 kcal/mol for the second.

First: R25G
Second: R25F
The “folding stability dG” value of the first is lower: 3.32 kcal/mol for the first, 3.79 kcal/mol for the second.

Compared with R25N, R25P is lower in “folding stability dG” value: 3.44 kcal/mol for the first, 3.14 kcal/mol for the second.

Compared with R25A, R25W is higher in “folding stability dG” value: 3.68 kcal/mol for the first, 3.77 kcal/mol for the second.

Going from R25Y to R25E, the “folding stability dG” value falls from 3.65 kcal/mol to 3.28 kcal/mol.

First: R25M
Second: R25L
The “folding stability dG” value of the first is lower: 3.66 kcal/mol for the first, 3.81 kcal/mol for the second.

First: R25I
Second: R25D
The “folding stability dG” value of the first is higher: 3.67 kcal/mol for the first, 3.21 kcal/mol for the second.

Going from R25V to R25H, the “folding stability dG” value rises from 3.64 kcal/mol to 3.72 kcal/mol.

Compared with R25S, R25K is higher in “folding stability dG” value: 3.51 kcal/mol for the first, 3.57 kcal/mol for the second.

Compared with R25Q, A31S is higher in “folding stability dG” value: 3.41 kcal/mol for the first, 3.65 kcal/mol for the second.

First: A31T
Second: A31F
The “folding stability dG” value of the first is higher: 3.86 kcal/mol for the first, 3.83 kcal/mol for the second.

First: A31P
Second: A31I
The “folding stability dG” value of the first is lower: 3.15 kcal/mol for the first, 4.34 kcal/mol for the second.

First: A31E
Second: A31M
The “folding stability dG” value of the first is higher: 4.2 kcal/mol for the first, 4.08 kcal/mol for the second.

Going from A31N to A31D, the “folding stability dG” value rises from 3.49 kcal/mol to 3.88 kcal/mol.

Compared with A31R, A31V is higher in “folding stability dG” value: 3.61 kcal/mol for the first, 4.27 kcal/mol for the second.

First: A31W
Second: A31Q
The “folding stability dG” value of the first is higher: 4.01 kcal/mol for the first, 3.99 kcal/mol for the second.

First: A31Y
Second: A31K
The “folding stability dG” value of the first is higher: 3.62 kcal/mol for the first, 3.6 kcal/mol for the second.

Going from A31L to A31H, the “folding stability dG” value falls from 4.06 kcal/mol to 3.68 kcal/mol.

With A31G the “folding stability dG” value was 3.71 kcal/mol.
